Measurements reported in patent US20210206877A1.

Target: BACE1 endogenous to primary cortical neurons from E16.5 CD1 mice (mouse) (UniProt P56818)
Experiment: cell-based or functional assay

Chain of BACE1 endogenous to primary cortical neurons from E16.5 CD1 mice (mouse) (P56818 46-501): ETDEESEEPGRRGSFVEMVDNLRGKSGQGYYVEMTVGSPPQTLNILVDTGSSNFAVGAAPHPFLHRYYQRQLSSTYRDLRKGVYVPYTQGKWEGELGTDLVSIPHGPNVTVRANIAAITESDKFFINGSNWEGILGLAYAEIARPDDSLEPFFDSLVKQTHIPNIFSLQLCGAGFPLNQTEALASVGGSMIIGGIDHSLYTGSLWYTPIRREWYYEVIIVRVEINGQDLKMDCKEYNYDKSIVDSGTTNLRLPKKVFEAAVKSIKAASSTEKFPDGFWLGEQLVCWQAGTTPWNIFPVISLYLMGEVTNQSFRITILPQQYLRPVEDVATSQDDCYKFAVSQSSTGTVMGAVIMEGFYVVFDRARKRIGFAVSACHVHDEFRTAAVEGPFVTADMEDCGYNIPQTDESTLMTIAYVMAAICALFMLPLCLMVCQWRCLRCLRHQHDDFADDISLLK

IC50, inhibition of Aβx-40 production in primary mouse cortical neuron cultures (sandwich ELISA of supernatants): 2.9 nM
maximum inhibition of Aβx-40 production in primary mouse cortical neuron cultures: 62%
Substance: antibody YW412.8.31
